In publication PMC1802081 (BMC Structural Biology, 2007):

T1: BMP-7 (CHO cells, R&D Systems) (UniProt P18075 293-431, biotin (biotinylated for the biosensor; site not stated))
T1 construct: bone morphogenetic protein 7 (BMP-7), mature ligand; source: bought: R&D Systems (CHO cells)
T1 sequence (looked up): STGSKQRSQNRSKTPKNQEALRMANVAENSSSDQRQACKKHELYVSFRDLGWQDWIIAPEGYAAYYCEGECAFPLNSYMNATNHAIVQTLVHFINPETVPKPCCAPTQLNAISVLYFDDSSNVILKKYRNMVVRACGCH

T2: ActR-IIBECD L61A (UniProt P27040 19-137, L61A)
T2 construct: also called ActR-IIBL61A; source: E. coli OrigamiB (DE3), purified (Ni2+-IMAC, thrombin cleavage, anion exchange, RP-HPLC)
T2 sequence (looked up): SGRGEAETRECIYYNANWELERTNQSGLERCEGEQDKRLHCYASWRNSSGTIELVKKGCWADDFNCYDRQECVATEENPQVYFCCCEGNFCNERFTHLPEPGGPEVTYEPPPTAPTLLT

T3: ActR-IIBECD L61P (UniProt P27040 19-137, L61P)
T3 construct: also called ActR-IIBL61P; source: E. coli OrigamiB (DE3), purified (Ni2+-IMAC, thrombin cleavage, anion exchange, RP-HPLC)
T3 sequence (looked up): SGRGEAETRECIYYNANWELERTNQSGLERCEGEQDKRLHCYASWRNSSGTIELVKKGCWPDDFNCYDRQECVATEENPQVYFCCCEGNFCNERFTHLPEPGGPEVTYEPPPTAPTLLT

T4: BMPR-II receptor ectodomain (UniProt Q13873 27-150)
T4 construct: BMP type II receptor (BMPR-II), extracellular domain; also called BMPR-IIECD; source: expressed and purified as described earlier [28]
T4 sequence (looked up): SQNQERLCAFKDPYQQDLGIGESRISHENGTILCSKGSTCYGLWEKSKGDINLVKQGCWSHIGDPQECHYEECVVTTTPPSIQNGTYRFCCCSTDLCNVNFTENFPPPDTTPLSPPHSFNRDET

B1: ActR-IIBECD wildtype (activin type IIB receptor ectodomain) (receptor, UniProt P27040 19-137, looked up)
chain: SGRGEAETRECIYYNANWELERTNQSGLERCEGEQDKRLHCYASWRNSSGTIELVKKGCWLDDFNCYDRQECVATEENPQVYFCCCEGNFCNERFTHLPEPGGPEVTYEPPPTAPTLLT
notes: source: E. coli OrigamiB (DE3), purified (Ni2+-IMAC, thrombin cleavage, anion exchange, RP-HPLC)

What was measured:
Conditions in all cases: both partners purified
[1] = molecular target: T1, BMP-7 (CHO cells, R&D Systems); assay: SPR; BIACORE 2000; biotinylated ligand on a streptavidin-modified CM5 chip (about 200 RU); receptor ectodomain as analyte at 1, 2, 3, 5, 10, 20 and 50 uM; HBS500 (10 mM HEPES pH 7.4, 500 mM NaCl, 3.4 mM EDTA, 0.005% P20); apparent KD from the dose dependence of equilibrium binding
[2] = molecular target: T5, binary complex BMP-2:BMPR-IAECD (UniProt P12643 283-396; P36894 24-152); assay: ITC; isothermal titration calorimetry, 25°C; who was titrated is not told
T5 construct: bone morphogenetic protein 2 (BMP-2), mature ligand, as m1; BMP type IA receptor (BMPR-IA), extracellular domain, as m25; also called BMP-2 complexed with BMPR-IAECD; BMP-2:(BMPR-IAECD)2; source: formed from the purified proteins and purified as described [58]; copies: 2 + 2

[3] = molecular target: T1, BMP-7 (CHO cells, R&D Systems); assay: SPR; BIACORE 2000; biotinylated ligand on a streptavidin-modified CM5 chip (about 200 RU); receptor ectodomain as analyte at 1, 2, 3, 5, 10, 20 and 50 uM; HBS500 (10 mM HEPES pH 7.4, 500 mM NaCl, 3.4 mM EDTA, 0.005% P20); apparent KD from the dose dependence of equilibrium binding; remark: listed apart in the source
[4] = molecular target: T6, ActR-II receptor ectodomain (UniProt P27037 20-135); assay: as above
T6 construct: activin receptor type II (ActR-II), extracellular domain; also called ActR-IIECD; source: expressed and purified as described earlier [28]

[5] = molecular target: B1; assay: as above
ActR-IIBECD L61A = molecular target: T2, ActR-IIBECD L61A; assay: as above
ActR-IIBECD L61P = molecular target: T3, ActR-IIBECD L61P; assay: as above
[6] = molecular target: T6, ActR-II receptor ectodomain; assay: as above; remark: listed apart in the source
[7] = molecular target: B1; assay: as above; remark: listed apart in the source
[8] = molecular target: T4, BMPR-II receptor ectodomain; assay: as above

Row | Kd [1] | dH [2] | Kd [3] | Kd [4] | Kd [5] | Kd (ActR-IIBECD L61A) | Kd (ActR-IIBECD L61P) | Kd [6] | Kd [7] | Kd [8] | Binder
1 | 3600 nM | 14 kcal/mol | 2800 nM |  |  |  |  |  |  |  | B1
2 |  |  |  | ~250 nM | 65 nM | 2000 nM | 180000 nM | 230 nM | 60 nM | 8700 nM | activin A (Sf9 cells) (ligand, UniProt P08476 311-426, looked up, biotin (biotinylated for the biosensor; site not stated), activin A (dimer of inhibin beta A chains), mature ligand; also called Act-A; source: Sf9 cells [59]) GLECDGKVNICCKKQFFVSFKDIGWNDWIIAPSGYHANYCEGECPSHIAGTSGSSLSFHSTVINHYRMRGHSPFANLKSCCVPTKLRPMSMLYYDDGQNIIKKDIQNMIVEECGCS
